Several values for one entry are separate records, joined by “and”; a condition that tells them apart may be missing. Equal values may be shown once.

The chains are these.
B1: CE115HA340 one-arm antibody (antibody, human IgG1, kappa, L234A L235A, N297A)
VH: QVQLVESGGGLVQPGRSLRLSCAASGFTFSNAWMHWVRQAPGKGLEWVAQIKDKSNNYATYYAESVKGRFTISRDDSKNSIYLQMNSLKTEDTAVYYCRYVHYAAYYGVDAWGQGTTVTVSSASTKGPSVFPLAPSSKSTSGGTAALGCLVKDYFPEPVTVSWNSGALTSGVHTFPAVLQSSGLYSLSSVVTVPSSSLGTQTYICNVNHKPSNTKVDKKVEPKSCDKTHTCPPCPAPEAAGGPSVFLFPPKPKDTLMISRTPEVTCVVVDVSHEDPEVKFNWYVDGVEVHNAKTKPREEQYASTYRVVSVLTVLHQDWLNGKEYKCKVSNKALPAPIEKTISKAKGQPREPQVYTLPPSRCELTKNQVSLSCAVKGFYPSDIAVEWESNGQPENNYKTTPPVLDSDGSFFLVSKLTVDKSRWQQGNVFSCSVMHEALHNHYTQKSLSLSPDYKDDDDK
chain: EPKSSDKTHTCPPCPAPELLGGPSVFLFPPKPKDTLMISRTPEVTCVVVDVSHEDPEVKFNWYVDGVEVHNAKTKPREEQYNSTYRVVSVLTVLHQDWLNGKEYKCKVSNKALPAPIEKTISKAKGQPREPQVCTLPPSRDELTKNQVSLWCLVKGFYPSDIAVEWESNGQPENNYKTTPPVLDSDGSFFLYSKLTVDKSRWQQGNVFSCSVMHEALHNRYTQKSLSLSP
light: DIVMTQSPLSLPVTPGEPASISCRSSQSLVHSNRNTYLHWYQQKPGQAPRLLIYKVSNRFSGVPDRFSGSGSGTDFTLKISRVEAEDVGVYYCGQGTQVPYTFGQGTKLEIKRTVAAPSVFIFPPSDEQLKSGTASVVCLLNNFYPREAKVQWKVDNALQSGNSQESVTEQDSKDSTYSLSSTLTLSKADYEKHKVYACEVTHQGLSSPVTKSFNRGEC
notes: one-arm antibody
B2: NHS6f29 (antibody)
chain 1: QVQLVESGGGLVQPGRSLRLSCAASGFTFSNAWMHWVRQAPGKGLEWVAQIKDKSNNYATYYAESVKGRFTISRDDSKNSIYLQMNSLKTEDTAVYYCRYVHYAAIYYPTNYYGVDAWGQGTTVTVSSASTKGPSVFPLAPSSKSTSGGTAALGCLVKDYFPEPVTVSWNSGALTSGVHTFPAVLQSSGLYSLSSVVTVPSSSLGTQTYICNVNHKPSNTKVDKKVEPKSCDKTHTCPPCPAPEAAGGPSVFLFPPKPKDTLMISRTPEVTCVVVDVSHEDPEVKFNWYVDGVEVHNAKTKPREEQYASTYRVVSVLTVLHQDWLNGKEYKCKVSNKALPAPIEKTISKAKGQPREPQVYTLPPSRCELTKNQVSLSCAVKGFYPSDIAVEWESNGQPENNYKTTPPVLDSDGSFFLVSKLTVDKSRWQQGNVFSCSVMHEALHNHYTQKSLSLSPDYKDDDDK
chain 2: EPKSSDKTHTCPPCPAPELLGGPSVFLFPPKPKDTLMISRTPEVTCVVVDVSHEDPEVKFNWYVDGVEVHNAKTKPREEQYNSTYRVVSVLTVLHQDWLNGKEYKCKVSNKALPAPIEKTISKAKGQPREPQVCTLPPSRDELTKNQVSLWCLVKGFYPSDIAVEWESNGQPENNYKTTPPVLDSDGSFFLYSKLTVDKSRWQQGNVFSCSVMHEALHNRYTQKSLSLSP
chain 3: DIVMTQSPLSLPVTPGEPASISCRSSQSLVHSNRNTYLHWYQQKPGQAPRLLIYKVSNRFSGVPDRFSGSGSGTDFTLKISRVEAEDVGVYYCGQGTQVPYTFGQGTKLEIKRTVAAPSVFIFPPSDEQLKSGTASVVCLLNNFYPREAKVQWKVDNALQSGNSQESVTEQDSKDSTYSLSSTLTLSKADYEKHKVYACEVTHQGLSSPVTKSFNRGEC
B3: NNS6f27 (antibody)
chain 1: QVQLVESGGGLVQPGRSLRLSCAASGFTFSNAWMHWVRQAPGKGLEWVAQIKDKSNNYATYYAESVKGRFTISRDDSKNSIYLQMNSLKTEDTAVYYCRYVHYAAVWGSVWYYGVDAWGQGTTVTVSSASTKGPSVFPLAPSSKSTSGGTAALGCLVKDYFPEPVTVSWNSGALTSGVHTFPAVLQSSGLYSLSSVVTVPSSSLGTQTYICNVNHKPSNTKVDKKVEPKSCDKTHTCPPCPAPEAAGGPSVFLFPPKPKDTLMISRTPEVTCVVVDVSHEDPEVKFNWYVDGVEVHNAKTKPREEQYASTYRVVSVLTVLHQDWLNGKEYKCKVSNKALPAPIEKTISKAKGQPREPQVYTLPPSRCELTKNQVSLSCAVKGFYPSDIAVEWESNGQPENNYKTTPPVLDSDGSFFLVSKLTVDKSRWQQGNVFSCSVMHEALHNHYTQKSLSLSPDYKDDDDK
chain 2: EPKSSDKTHTCPPCPAPELLGGPSVFLFPPKPKDTLMISRTPEVTCVVVDVSHEDPEVKFNWYVDGVEVHNAKTKPREEQYNSTYRVVSVLTVLHQDWLNGKEYKCKVSNKALPAPIEKTISKAKGQPREPQVCTLPPSRDELTKNQVSLWCLVKGFYPSDIAVEWESNGQPENNYKTTPPVLDSDGSFFLYSKLTVDKSRWQQGNVFSCSVMHEALHNRYTQKSLSLSP
chain 3: DIVMTQSPLSLPVTPGEPASISCRSSQSLVHSNRNTYLHWYQQKPGQAPRLLIYKVSNRFSGVPDRFSGSGSGTDFTLKISRVEAEDVGVYYCGQGTQVPYTFGQGTKLEIKRTVAAPSVFIFPPSDEQLKSGTASVVCLLNNFYPREAKVQWKVDNALQSGNSQESVTEQDSKDSTYSLSSTLTLSKADYEKHKVYACEVTHQGLSSPVTKSFNRGEC
B4: NHS6f17 (antibody)
chain 1: QVQLVESGGGLVQPGRSLRLSCAASGFTFSNAWMHWVRQAPGKGLEWVAQIKDKSNNYATYYAESVKGRFTISRDDSKNSIYLQMNSLKTEDTAVYYCRYVHYAAWGEGVVYYGVDAWGQGTTVTVSSASTKGPSVFPLAPSSKSTSGGTAALGCLVKDYFPEPVTVSWNSGALTSGVHTFPAVLQSSGLYSLSSVVTVPSSSLGTQTYICNVNHKPSNTKVDKKVEPKSCDKTHTCPPCPAPEAAGGPSVFLFPPKPKDTLMISRTPEVTCVVVDVSHEDPEVKFNWYVDGVEVHNAKTKPREEQYASTYRVVSVLTVLHQDWLNGKEYKCKVSNKALPAPIEKTISKAKGQPREPQVYTLPPSRCELTKNQVSLSCAVKGFYPSDIAVEWESNGQPENNYKTTPPVLDSDGSFFLVSKLTVDKSRWQQGNVFSCSVMHEALHNHYTQKSLSLSPDYKDDDDK
chain 2: EPKSSDKTHTCPPCPAPELLGGPSVFLFPPKPKDTLMISRTPEVTCVVVDVSHEDPEVKFNWYVDGVEVHNAKTKPREEQYNSTYRVVSVLTVLHQDWLNGKEYKCKVSNKALPAPIEKTISKAKGQPREPQVCTLPPSRDELTKNQVSLWCLVKGFYPSDIAVEWESNGQPENNYKTTPPVLDSDGSFFLYSKLTVDKSRWQQGNVFSCSVMHEALHNRYTQKSLSLSP
chain 3: DIVMTQSPLSLPVTPGEPASISCRSSQSLVHSNRNTYLHWYQQKPGQAPRLLIYKVSNRFSGVPDRFSGSGSGTDFTLKISRVEAEDVGVYYCGQGTQVPYTFGQGTKLEIKRTVAAPSVFIFPPSDEQLKSGTASVVCLLNNFYPREAKVQWKVDNALQSGNSQESVTEQDSKDSTYSLSSTLTLSKADYEKHKVYACEVTHQGLSSPVTKSFNRGEC

The target in this experiment is biotinylated CD3 epsilon epitope peptide. Description: SPR, one-arm Ab. In general terms: In SPR one partner is held on a chip, and binding of the other changes the refractive index at the surface.
In general, Kd refers to a measure of binding affinity in units of concentration. Read a high Kd as lower affinity. On to B1, for which the Kd is 20 nM and 27 nM.
In the case of B2, the Kd was found to be 90 nM.
Take B3: the Kd amounted to 38 nM.
In turn, B4 came in with a Kd of 74 nM.

Values taken from patent US20200377595A1 (Chugai, published 2020).
